According to patent US20080044360A1 (COLLAGEN MEDICAL, published 2008):
Bridge positions count the residues as written; N and C are the ends. Square brackets hold non-standard residues; d marks the D form. Ends that are not written are not given here.

Columns and labels:
[1] = molecular target: T1, human collagen type I, acid soluble, extracted from placenta (Sigma C7774) (human, UniProt P02452 162-1218; P08123 80-1119); experiment: dried collagen assay
T1 construct: tissue extract, gelled and dried in wells; also called dried human collagen; h-Collagen
T1 sequence (P02452 162-1218 limits assumed, chain 1 of 2): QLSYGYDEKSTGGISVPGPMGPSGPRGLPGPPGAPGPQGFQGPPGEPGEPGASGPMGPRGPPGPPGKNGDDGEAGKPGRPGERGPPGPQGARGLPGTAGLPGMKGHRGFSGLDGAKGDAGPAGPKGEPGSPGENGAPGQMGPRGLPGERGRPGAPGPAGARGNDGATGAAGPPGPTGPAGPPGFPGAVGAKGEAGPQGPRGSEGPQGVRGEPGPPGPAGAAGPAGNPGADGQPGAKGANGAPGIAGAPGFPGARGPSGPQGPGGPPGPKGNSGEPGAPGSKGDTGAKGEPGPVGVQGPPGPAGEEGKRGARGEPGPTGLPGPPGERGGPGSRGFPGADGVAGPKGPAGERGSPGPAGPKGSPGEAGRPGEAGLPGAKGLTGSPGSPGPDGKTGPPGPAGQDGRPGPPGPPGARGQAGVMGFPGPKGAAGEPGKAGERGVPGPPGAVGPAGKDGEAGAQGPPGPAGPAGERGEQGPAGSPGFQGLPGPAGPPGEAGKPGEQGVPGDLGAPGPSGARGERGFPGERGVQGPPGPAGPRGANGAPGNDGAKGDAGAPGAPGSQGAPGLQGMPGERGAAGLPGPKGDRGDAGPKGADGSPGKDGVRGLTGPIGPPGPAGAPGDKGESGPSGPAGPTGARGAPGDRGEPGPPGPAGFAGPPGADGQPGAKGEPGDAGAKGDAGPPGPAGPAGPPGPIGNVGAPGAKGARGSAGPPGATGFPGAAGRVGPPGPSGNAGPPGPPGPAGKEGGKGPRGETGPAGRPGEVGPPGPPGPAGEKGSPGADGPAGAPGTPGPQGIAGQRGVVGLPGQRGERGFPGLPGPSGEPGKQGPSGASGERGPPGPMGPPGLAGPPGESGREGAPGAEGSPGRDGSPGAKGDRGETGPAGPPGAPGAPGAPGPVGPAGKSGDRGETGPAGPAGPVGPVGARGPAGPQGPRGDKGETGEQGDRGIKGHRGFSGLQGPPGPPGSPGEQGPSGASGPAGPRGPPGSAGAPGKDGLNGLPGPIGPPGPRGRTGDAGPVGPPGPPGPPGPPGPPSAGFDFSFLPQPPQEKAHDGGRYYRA
T1 sequence (P08123 80-1119 limits assumed, chain 2 of 2): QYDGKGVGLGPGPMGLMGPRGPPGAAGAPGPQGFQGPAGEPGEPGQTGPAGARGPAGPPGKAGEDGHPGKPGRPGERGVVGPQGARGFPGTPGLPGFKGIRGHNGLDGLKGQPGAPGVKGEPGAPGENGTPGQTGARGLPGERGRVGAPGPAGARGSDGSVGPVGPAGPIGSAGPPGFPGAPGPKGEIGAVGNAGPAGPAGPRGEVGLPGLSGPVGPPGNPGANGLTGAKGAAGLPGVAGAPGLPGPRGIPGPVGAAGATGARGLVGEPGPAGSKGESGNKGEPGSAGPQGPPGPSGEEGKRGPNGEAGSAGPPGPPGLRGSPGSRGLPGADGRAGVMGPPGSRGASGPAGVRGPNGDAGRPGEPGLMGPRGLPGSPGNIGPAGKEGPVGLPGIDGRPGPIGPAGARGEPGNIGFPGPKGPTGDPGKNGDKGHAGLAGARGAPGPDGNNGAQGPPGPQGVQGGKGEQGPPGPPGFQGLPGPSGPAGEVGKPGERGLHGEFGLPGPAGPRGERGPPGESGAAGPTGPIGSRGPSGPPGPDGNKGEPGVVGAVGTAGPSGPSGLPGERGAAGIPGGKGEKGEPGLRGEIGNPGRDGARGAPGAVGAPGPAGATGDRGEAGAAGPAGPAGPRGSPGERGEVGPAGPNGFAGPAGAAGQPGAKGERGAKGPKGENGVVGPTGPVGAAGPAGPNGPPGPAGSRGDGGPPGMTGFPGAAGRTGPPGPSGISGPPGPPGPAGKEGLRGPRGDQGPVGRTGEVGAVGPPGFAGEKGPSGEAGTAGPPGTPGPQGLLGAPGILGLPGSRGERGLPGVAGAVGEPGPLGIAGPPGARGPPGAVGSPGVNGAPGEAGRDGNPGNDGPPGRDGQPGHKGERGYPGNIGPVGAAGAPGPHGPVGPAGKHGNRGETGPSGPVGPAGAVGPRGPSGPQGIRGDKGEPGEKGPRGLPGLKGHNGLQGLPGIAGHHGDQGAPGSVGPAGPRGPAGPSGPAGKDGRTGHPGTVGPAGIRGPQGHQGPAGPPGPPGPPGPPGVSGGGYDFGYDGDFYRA
Experimental: (§1) An additional 90 μL is reserved in a HPLC glass vial as a measure of the total concentration.

[2] = molecular target: T2, rat collagen, acid soluble, type I, rat tail (Upstate 08-115) (rat, UniProt P02454 152-1207; P02466 86-1125); experiment: dried collagen assay
T2 construct: tissue extract, gelled and dried in wells; also called dried rat collagen
T2 sequence (P02454 152-1207, chain 1 of 2): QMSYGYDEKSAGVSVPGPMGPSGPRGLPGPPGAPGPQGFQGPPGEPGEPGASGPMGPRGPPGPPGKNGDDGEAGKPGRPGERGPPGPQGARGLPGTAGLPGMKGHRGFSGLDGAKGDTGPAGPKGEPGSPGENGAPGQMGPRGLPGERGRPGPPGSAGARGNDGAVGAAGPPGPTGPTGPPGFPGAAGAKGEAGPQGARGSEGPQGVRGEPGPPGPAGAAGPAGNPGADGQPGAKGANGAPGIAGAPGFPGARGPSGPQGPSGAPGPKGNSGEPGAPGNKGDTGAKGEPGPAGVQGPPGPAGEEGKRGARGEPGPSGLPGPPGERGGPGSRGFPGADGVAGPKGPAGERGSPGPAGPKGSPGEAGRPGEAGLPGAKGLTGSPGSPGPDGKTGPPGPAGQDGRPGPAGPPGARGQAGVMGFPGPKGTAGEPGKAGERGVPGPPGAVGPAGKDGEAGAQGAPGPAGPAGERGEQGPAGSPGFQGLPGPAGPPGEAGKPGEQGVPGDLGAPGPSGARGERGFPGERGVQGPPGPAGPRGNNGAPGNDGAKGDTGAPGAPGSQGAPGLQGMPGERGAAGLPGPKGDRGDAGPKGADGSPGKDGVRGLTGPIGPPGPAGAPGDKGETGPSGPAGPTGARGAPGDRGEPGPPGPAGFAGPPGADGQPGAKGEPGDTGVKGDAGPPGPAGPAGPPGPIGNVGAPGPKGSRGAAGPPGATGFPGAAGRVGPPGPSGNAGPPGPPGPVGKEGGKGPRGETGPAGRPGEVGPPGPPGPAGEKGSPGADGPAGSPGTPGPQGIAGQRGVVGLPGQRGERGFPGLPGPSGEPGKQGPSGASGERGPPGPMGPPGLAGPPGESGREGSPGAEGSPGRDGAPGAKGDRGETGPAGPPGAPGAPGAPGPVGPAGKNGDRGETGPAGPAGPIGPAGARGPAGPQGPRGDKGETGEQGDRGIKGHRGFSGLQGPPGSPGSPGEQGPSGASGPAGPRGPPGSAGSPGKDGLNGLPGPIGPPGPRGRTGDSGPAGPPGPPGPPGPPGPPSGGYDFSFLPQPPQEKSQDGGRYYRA
T2 sequence (P02466 86-1125, chain 2 of 2): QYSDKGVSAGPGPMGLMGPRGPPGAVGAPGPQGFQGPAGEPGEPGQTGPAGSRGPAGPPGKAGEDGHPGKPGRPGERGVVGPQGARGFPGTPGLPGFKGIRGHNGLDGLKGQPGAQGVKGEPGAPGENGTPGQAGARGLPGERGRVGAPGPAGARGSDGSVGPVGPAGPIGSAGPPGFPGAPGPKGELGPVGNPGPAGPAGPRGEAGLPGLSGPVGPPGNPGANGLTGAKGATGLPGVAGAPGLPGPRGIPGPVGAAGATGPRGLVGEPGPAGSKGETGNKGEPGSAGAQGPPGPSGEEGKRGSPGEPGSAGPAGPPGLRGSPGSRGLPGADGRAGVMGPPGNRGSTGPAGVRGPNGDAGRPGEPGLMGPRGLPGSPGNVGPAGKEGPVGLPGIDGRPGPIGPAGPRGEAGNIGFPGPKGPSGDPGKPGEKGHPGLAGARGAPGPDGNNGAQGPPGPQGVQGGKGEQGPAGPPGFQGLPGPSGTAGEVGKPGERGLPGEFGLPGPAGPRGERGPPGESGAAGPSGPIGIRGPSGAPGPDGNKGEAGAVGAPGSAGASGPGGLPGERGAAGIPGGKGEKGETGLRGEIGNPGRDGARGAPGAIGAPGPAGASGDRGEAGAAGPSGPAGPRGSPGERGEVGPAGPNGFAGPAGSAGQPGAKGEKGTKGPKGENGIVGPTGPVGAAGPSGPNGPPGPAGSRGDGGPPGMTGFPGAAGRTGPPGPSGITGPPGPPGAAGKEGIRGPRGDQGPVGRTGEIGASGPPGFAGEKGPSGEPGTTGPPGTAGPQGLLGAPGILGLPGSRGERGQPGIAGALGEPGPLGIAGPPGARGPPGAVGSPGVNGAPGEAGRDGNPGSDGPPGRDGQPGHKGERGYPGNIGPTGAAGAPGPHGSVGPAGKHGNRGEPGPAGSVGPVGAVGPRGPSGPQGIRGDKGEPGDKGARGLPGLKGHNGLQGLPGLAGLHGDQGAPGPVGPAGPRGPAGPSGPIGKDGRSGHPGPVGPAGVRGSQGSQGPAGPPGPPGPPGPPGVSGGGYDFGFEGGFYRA
Experimental: as §1

% bound [1] | % bound [2] | Binder
0% | 24% | YHASYQAGSWIW (printed without cysteines (S for C)) [SEQ ID NO 111]
71% | 71% | GQWTCSGDEYTWHCNYE (disulfide 5-14 (inferred), cyclic, disulfide) [SEQ ID NO 122]
66% | 51% | GQWTCSGAEYTWHCNYE (disulfide 5-14 (inferred), cyclic, disulfide) [SEQ ID NO 143]
16% | 9% | GQWTCSGDEYTWHCNAE (disulfide 5-14 (inferred); not fully specified (C-terminus), cyclic, disulfide) [SEQ ID NO 150]
68% | 50% | GQWTCSGDEATWHCNYE (disulfide 5-14 (inferred); not fully specified (C-terminus), cyclic, disulfide) [SEQ ID NO 145]
80% | 73% | GQWTCSGDEYTWSCNYE (disulfide 5-14 (inferred), cyclic, disulfide) [SEQ ID NO 127]
87% | 83% | GQWTCAGDEYTWHCNYE (disulfide 5-14 (inferred), cyclic, disulfide) [SEQ ID NO 141]
57% | 72% | PWTCSGDEYAWHCNY[dE] (disulfide 4-13 (inferred), cyclic, disulfide) [SEQ ID NO 121]
1% | 0% | GQATCSGDEYTWHCNYE (disulfide 5-14 (inferred), cyclic, disulfide) [SEQ ID NO 139]
39% | 23% | DWTCSGDPYTWHCNYE (disulfide 4-13 (inferred), cyclic, disulfide) [SEQ ID NO 115]
82% | 77% | QWTCSGDEYAWHCNYE (disulfide 4-13 (inferred); not fully specified (N-terminus, C-terminus), cyclic, disulfide) [SEQ ID NO 146]
66% | 73% | GQWTCSGDEYTWACNYE (disulfide 5-14 (inferred); not fully specified (C-terminus), cyclic, disulfide) [SEQ ID NO 148]
68% | 73% | GQWTCSGDEYAWHCNY[dE] (disulfide 5-14 (inferred), cyclic, disulfide) [SEQ ID NO 126]
87% | 77% | GQWTCSGDAYTWHCNYE (disulfide 5-14 (inferred); not fully specified (C-terminus), cyclic, disulfide) [SEQ ID NO 144]
38% | 28% | DWTCSGDEYAWHCNY[dE] (disulfide 4-13 (inferred), cyclic, disulfide) [SEQ ID NO 120]
55% | 55% | DWTCSGDEFTWHCNYE (disulfide 4-13 (inferred), cyclic, disulfide) [SEQ ID NO 119]
2% | 1% | YHACYQAGCWIA (disulfide 4-9 (inferred), cyclic, disulfide) [SEQ ID NO 138]
19% | 14% | WTCSGDEYTWHCNYE (disulfide 3-12 (inferred), cyclic, disulfide) [SEQ ID NO 114]
